Experiment: yeast display, Sf9 membrane polyspecificity reagent, FACS + sequencing; frameworks hold sequencing errors
How it was run: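 A synthetic nanobody library was expressed on Saccharomyces cerevisiae BJ5465 by galactose induction for 36–48 hours. The library was stained for 1 hour at 4 °C with 10% biotinylated, detergent-solubilized Sf9 membrane reagent and enriched with streptavidin microbeads before FACS. Low and high (top ~1%) gates were set on anti-HA fluorescence for expression and streptavidin fluorescence for reagent binding, and each polyreactivity label reflects the gate of origin.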

Sequence | polyreactivity (PSR sort gate)
QVQLVESGGCLVQAGGSLRLSCAASGFIFAYYAMGWYRQARGKERELVAAISYSGSTKYSDSVKGRFTISRDNSKNTVNLQMNSLKPEDTAVYYCAADRVWGTPQAYVPSQFDYWGQGTQVTVSS | low polyreactivity
QEQLQGSGGGLAQAGDSLRLSCAASGTIFSEYNNGLVSPGAGQRTRTCCRYWCWGNTYYADSAKGRFTTIRDNAKNTVYLQKNSLKPEDTAVYYCAFNRPYPSRHIYRGQGTQVTVSS | high polyreactivity
QVQLVESGGGLVQAGGSLRLSCAASGGTIDRYAMGWYRQAPGKERELVAAITKSGDRTYYADSVKGRFTISRDNAKNTVYLQMNSLKPEDTAVYYCAAAYSGLRRQNGFNYWGQGTQVTVSS | high polyreactivity
QVQLVESGRGLFQAGGSLRLSCAASGFTFSLYAMGWYRQPPGKERELVAVISYRGGSTYYAYSVKGRFTISRDNAKNTVYLQMNSLKPEVTAVYYCARVVLHFSRYWWPVDYWGQGTQVTVSS | high polyreactivity
QVQLVESGGGLVQAGGSLRLSCAASGRTFQPYAMGWYRQAPGKERELVASISRSGGRTYYADSVKGRFTISRDNAKNTVYLQMNSLKPEDTAVYYCAADIPYTRSIKYYYWGQGTQVTVSS | high polyreactivity
QVQLVESGGGLVKAGGSLRLSCAASGLTFRVYAMGWYRQAPGKECELVATISRTGSTTYAESVQGRFTISRDNAKNTVYLQMNSLKPEDTAVYYCNARYYFLLWDSLAREYWGQGTQVTVTS | high polyreactivity
QVQLVESGGGIVQAGRSLRLRCAASGSTFTPYGMGWYRQAPGKESELVAAITVSGGRTYYADSVKGRFTISRDNANNTVSLVMNSLKPEDTAVYYCAAVYLRADGDYDYWGQGTQVNVSS | low polyreactivity
QVQLVESGGGLVQAGGSLRLICAASGFTFGYYAMGWYRQAPRKERELVAAISYTGGSTYYADSVKGRFTISRDNAMNTVYLQMNSLKPEDTAVYYCNAYSALYGSYNYWGQGTQVTVSS | high polyreactivity
QVQLGESGGGLVQAGGSLRLSCAPSGSPFPYYVMGWYRPAPGKERELVAAISKSGGSTYYADSVKGRFTISRDNAKNTVYLQMNSLKPEDPAVYYCAAAIRSYRGPRFNYWGQGTQVTVSS | high polyreactivity
QVQLVESGGGLVQAGGSLRLSCAASGFTFVSYAMGWYRQAPGKERELVAAISSRVVSTYYADSVKGRFTISRDNAKNTVYLQMNSLKPEDTAVYYCATDRYAYKLYDYWGQGTQVTVSS | low polyreactivity
QVQLVESGGGLVQAGGSLRLSCAASGRIFVVYAMGWYRQAPGKERELVAAIRSGGSTNYADSVKGRFTISRDNAKNTVYLQMNSLKPEDTAVYYCADCKWHSAYDYWGQGTQVTVSS | high polyreactivity
QVQLVESGGGLVQAGGILRLSFAASGFISLDYAMGWYRQAPGKERELVAAISNGGGTNYADSVKGRFTISRDNAKNTVYLQMNSLKPEDTAVYYCNASVSYGYEYDSWGQGTQVTVSS | low polyreactivity
LVLLVESGGGLVQAGGSLRLSCAASGSSLDWYAMGWYRQAPGNVRELVASLSYSGGTTYYADSVTVRFTISRDNAKNTVYLQMISLKPDDTAVDYCATDLLNNVDYDYWGQGTQVTVSS | low polyreactivity
QVQLVESGGGLVQAGGSLRLSCAASGFIFYYNAMGWYRQAPGKERELVAAISTDGGSTYYADSVKGRFTISRDNAKNTVYLQMNSLKPEDTAVYYCAANRYKRYDYWGQGTQVTVSS | low polyreactivity
QVQLVESGGGLVQAGGSLRLSCAASGSTFKRYAMGWYRQAPGKERELVAAITRGGGSTYYADSVKGRFTISRDNAKNTVYLQMNSLKPEDTAVYYCNKGYRDYFTAYLSRYYWGQGTQVTVSS | high polyreactivity
QFHLVESGGRLVQAGGSLRLSCAASGRIFYYYVMGWYRQAPGKERELVAVIDWSGGSTYYADSVKGRFTISRDNAKNTVYVQMNSLKPEDTAVYYCAKVWLNFSLAYEDYDYWGQGTQVTVSS | low polyreactivity
QVQLVESGGGLVQAGGSLRLSCAASGSTFLTNAMGWYRQAPGKERELGAAITWSTGSTYYADSVKGRFTISRDNAKNTVYLQMNSLKPEDTAVYYCNARSEVSYWWGGYWGQGTQVTVSS | low polyreactivity
QVQLVESGGGLVQAGGSLRLSCAASGFIFRRNAMGWYRQAPGKERELVAAITGGGGSTYYADSVKGRFTISRDNAKNTVYLQMNSLKPEDTAVYYCAVDWSRFYNRGGDYWGQGTQVTVSS | high polyreactivity
QVQLVESGGGLVQAGGSLRLICAASGRIFYYYTMGWYRQAPGKERELVAAITRSGSSTYADSVKGRFTISRDNAKNTVYLQMNSLKPEDTAVYYCAADYIRRYDYWGQGTQVTVSS | low polyreactivity
QVQLVESGGGLVQAGGSLRLICAASGRTFVYYAMGWYRQAPGKERELLAANSLSGSTYYAYSVKGRVTISRDNAKNTVDLHMYSLKPDDTAVYYCARPGGPDRTSSPYPYPYGYWGQGTQVTVSS | low polyreactivity
QVELVVSGGGLVQPGGSLRLSCAASGSTFFNNGMGWYRQSPGKERELVATITKRGGNTYYADSVKGRFTISRDNAKNTVYLQMNSLKPEDTAVYYCAALRYKLPLGYWGQGTQVTVSS | high polyreactivity
QVQLVESGGRLVQAGGSLRLSCAASGITLNRNAMGWYRQEPGKESELVARISRRGGTTYYADSVKGRFTISRYYAKNTVYLQMNSLKPEDTAVYYCAASYSDRKLTDYWGQRTQVTVSS | high polyreactivity

Sequence | polyreactivity (PSR sort gate)
QVQLVESGGGLVQAGGSLRLSCAASGSNFNPYDLGWYRQAPGKERELVAAIDWSGGSTYYADSVKGRFTISRDNAKNTVYLQMNSLKPEDTAVYYCNAESYQDTLFGADNDYDYWGQGTLVTVSS | low polyreactivity
QVQLVESGGGLVQAGGSLRLSCAASGSIFGGNAMGWYRQAPGKERELVATIDFSGTSTYYADSVKGRFTISRDHAKKTVYLQMHSLKPEDTSVSSCNARSYPDYIYWSQRYDYDFWGQGTQVTVSS | low polyreactivity
QVQLVESGGGLVQAGGSLRLSCAASGRIFFRYDLGWYRQAPGKERELVAAISGGDRTSYADSVKGRFTISRDNAKITVYLQMNSLKPEDTAVYYCAGKRRSGEYYYWGQGTQVTVSS | low polyreactivity
QVQLVESGGGLVQAGGSLRLSCAASGYTFYGYAMGWYRQAPGKERELVAAISGSGGSTYYADSVKGRFTISRDNAKNTVYLQMNSLKPEDTAFYYCNKARYAIYRGDGYDYWGQGTQVTVSS | high polyreactivity
QVQLVESGGGLVQAGGSLRLSCAASGSTFYPYAMGWYRQAPGKERELVAAISSGGSTSYADSVKGRFTISRDNAKNTVYLQMNSLKPEDTEVYYCNASSPGAVPVYDYDYWGQGTQVTVSS | low polyreactivity
QGQLVESGGGLVQAGGSLRLSCAASGSTFAYYAMGWYRQAPGKERELVAAINTTTGSTFYADSVKGRFTISRDNAKNTVYLQMNSLKPEDTAGYYCAAGVTGPSDDYDYWGQGTQVTVSS | low polyreactivity
QVQLQESVVGLVQAGGSLRLSCAASGNIIPTDRMGWYRQAPGKELEFVATISHGGSTNYADSVKGRFTISRDNAKNTVYLQMNSLKPEDTAVYYCAVWSLGSWRHYYWGQGTQVTVSS | low polyreactivity
QVQLVESGGGLVQAGGSLRLSCAASGFIFRYYSMAWYRQAPGKERELVAAISGSGGGTYYADSVKGRFTISRDYAKNTVYLQMNSLKPEDTAVYYCNARKVYSRRYKYDYWGQGSQVTVSS | high polyreactivity
QVQLVESGGGLVQAGGSLRLSCAASGSIFKVYAMGWYRQAPGKERELVAAISRGGSTYADSVKGRFTISRDNAKNTVYLQMISLKPEDTAVYYCNATVGRIYVTRYDYWGQGTQVTVSS | high polyreactivity
QVQLVESGGGLVQAGGSLRLSCAASGGILPKYAMGWYRQAPGKERELVAAIDGGGDSTYYADSVKGRFTISRDNAKNTVYLQMNSLKPEDTAVFYCAAYQWTGYYLEYDYWGQGTQVTVSS | low polyreactivity
QVQLVESGGGLVQAGGSLRLSCAASGSIYGRYVMGWYRQSPGKERELVATISSGGSTYYADSVKGRFTISRDNAKNTVYLQMNSLKPEDTAVYYCAASYSRFVDWIGDPGYDYWGQGTQVTVSS | low polyreactivity
QVQLVESGGGLVQAGGSLRLSFAASGIIFTRYAMGWYRQAPGKERELVARISWRGSSTSYPDSVKGRFTISRDNAKNTVYLQMNSLKPEDSAVYYCAARYLYLWADYEFGYWVQGTQVTVSS | high polyreactivity
QVQLVESGGGLVQAGGSLRLSCAASGLIFVKYARGWYRQAPGKEREFVAAITRSGGTTYYADSVKGRFTISRDNAKNPVYLQMNSLKPEDTAVYYCAAGVVIYFFGGGDYWGQGPQVTVSS | low polyreactivity
QVHLVESGGGLVQAGGSLRLSCAASGSTFGTYAMGWYRQAPGKERELVAAISNSGGSTYYADSVKGRFTISRDYAKNTVYLQMNSLKPEDTAVYYCNTDGLVRNGPFYSWGQGTQVTVSS | low polyreactivity
QVQLVESGGGLVQAGGSLRLSCAASGSILTENAMGWYRQAPGKERELVAAISRSGGRTYYADSVKGRFTISRDNAKNTVYLQMNSLKPEDTAVYYCAAEYWTVGYYYSLESDYWGQGTQVTVSS | low polyreactivity
QVKLVESGGGLVQAGGSLRLTCAASGSTLYAYAMGRYRQAPGKERELVAAISSRAVRTYYADSVKGRFTISRDNAKNTVYLQINSLKPEDTAVYYCAARGQAYSGDRMYYWGQGTQVTVSS | high polyreactivity
QVQLVESGGGLVQAGGSLRISCAAYGSTFGPYAMGWYRQAPGKERELVAAITWNGGSTYYADSVKGRFTISRDNAKNTVYLQMTSLKPEDTAVYYCAAKAYGRKGTYRVNYWGQGTQVTVSS | high polyreactivity
QVQLVESGGGLVQAGGSLRISCAASGRIFGENAMGWYRQAPGKERELVAAIRFSSGSTYYADSVKGRFTISRDNAKNTVYLQMNSLKPEDTAVYYCNADGWYALYEWLAVSGYYWGQGTQVTVSS | low polyreactivity
QVQLVESGGGLVQAGGSLRLSCAASGIIFDGNSMGWYRQAPGKEREFVAANSRNGGSTSYADSVKGRFTISRHNAKNTVYLQMHSLKPEDTAVYYCAADVETFWGCRYEYWGQGTQVTVSS | low polyreactivity
QVQLVESGGGIVQAGGSLRLSCAASGFIFKKYVMGWYRQAPGKERELVAGISRSGGSTYYADSVKGRFTISRENAKITVYFQMNSLKPEDTAVYYGAAYIYQSPTRGGGYWGQGTQVTVSS | high polyreactivity
QVQLVESGGGLVQAGGSLRLSCAASGRIFSQYAMGWYRQAPGKEREFVASISRSGGRTYYADSVKGRFTISRDNAKNTVYLQMNSLKPEDTAVYYCAARAETRYYTYNYWGQGTQVTVSS | high polyreactivity

Source: the nanobody polyreactivity screen of Harvey et al. (2022)
